Results reported in PMC7618180 (2025).
Each block holds one binder with its values, some of them ahead of it.

B1: isolated ZZ-DZB domain of KCMF1 (domain or fragment)
chain: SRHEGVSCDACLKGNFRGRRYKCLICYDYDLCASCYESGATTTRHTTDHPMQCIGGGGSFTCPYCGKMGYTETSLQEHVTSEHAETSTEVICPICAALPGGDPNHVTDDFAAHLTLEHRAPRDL

Key:
Test in all cases: ITC
[1] = molecular target: ^NLT peptide
[2] = molecular target: B1
[3] = molecular target: ^NRA peptide
[4] = molecular target: ^NRR peptide

Chain of ^NLT peptide (Q9P0J7 other isoform, or with tags, fused parts or gaps): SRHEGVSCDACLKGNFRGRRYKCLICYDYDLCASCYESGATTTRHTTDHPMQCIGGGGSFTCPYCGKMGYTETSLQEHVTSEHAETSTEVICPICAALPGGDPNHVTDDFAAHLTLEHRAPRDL

Binder: B1
Kd [1]: 16 µM

Kd [2]: 7 µM
B2: ^NRT peptide (ITC) (peptide)
chain: RTGG

Kd [3]: 10 µM | Kd [4]: 19 µM
B3: AtUBR4 ZZ domain (domain or fragment)
chain: SSVQYCCDGCSTVPILRRRWHCTVCPDFDLCEACYEVLDADRLPPPHTRDHPMTAIPI
